Assay results: patent US7449563B2, “Methods and compositions for destabilizing microtubules” (Academia Sinica, priority 2003, dated 2008)
“Also recorded” adds a separate entry of the source. No end group written: not given here.

Legend:
[1] = target: T1, polymerized microtubules (bovine brain tubulin) (Bos taurus, UniProt P81947+Q6B856); assay: Microtubule depolymerization assay (centrosomes omitted); type: biochemical; details: centrosomes absent; nocodazole 15 μM as positive control; data not shown
T1 construct: containing 125 μg bovine brain tubulin (Cytoskeleton, Denver, Colo.); purchased Cytoskeleton, Denver, Colo; host or cells: bovine brain (tissue-purified)
Description: Microtubule Depolymerization Assay
In this assay, centrosomes are omitted from the above reaction mixtures to determine the effects of various truncated GST-CPAP proteins or synthetic peptides on microtubule polymerization in the absence of centrosomes. Polymerized microtubules were stained using FITC-conjugated anti-α-tubulin monoclonal antibodies, as above. Nocodazole (15 μM) was added to some reactions mixtures as a positive control for microtubule depolymerization.

HeLa cells = assay: Cell-based assay for CPAP activity: microtubule reassembly in cold-treated transfected HeLa cells; design: species or system human; details: transiently transfected HeLa cells
Description: Cell Culture and Transfection
HeLa cells were maintained in DMEM supplemented with 10% fetal bovine serum. cDNA clones encoding different portions of CPAP were subcloned, in an appropriate reading frame, into the CMV promoter-driven EGFP-C1 expression vector (Clontech, Palo Alto, Calif.). Transient transfections were performed using Lipofectamine 2000 (Invitrogen, Carlsbad, Calif.) according to the manufacturer's instructions.
Cold Treatment, Immunofluorescence and Confocal Microscopy
HeLa cells were grown on coverslips for at least 24 hr. Cold treatment was performed by incubating the cells at 4° C. for 1 hr, then replacing the cold medium with medium warmed to 30° C. and incubating the cells for 2 min at 30° C. The cells were then fixed with 1% formaldehyde for 30 min at room temperature.
The fixed cells were incubated in the presence of anti-α-tubulin monoclonal antibodies (N356, Amersham, Piscataway, N.J.) and anti-γ-tubulin polyclonal antibodies (Sigma, Saint Louis, Mo.). Bound anti-α-tubulin monoclonal antibodies (N356) were detected with Alexa 568, a Texas Red-conjugated goat anti-mouse IgG, or Alexa 647, a far-red fluorophore-conjugated goat anti-mouse IgG. Bound anti-γ-tubulin polyclonal antibodies were detected with Alexa 568 (Molecular Probes Inc.). The resulting […] signals were detected using a laser scanning confocal system (MRC 1000, Bio-Rad Laboratories, Hercules, Calif.).
The effect of various polypeptides derived from CPAP was determined by evaluating the amounts of mitotic spindle formation in the transfected cells. Decreased mitotic spindle formation indicated the presence of an activity that inhibited microtubule formation or destabilized microtubules.

[2] = target: T2, microtubule nucleation from purified centrosomes (bovine brain tubulin) (Bos taurus, UniProt P81947+Q6B856); assay: In vitro centrosome-dependent microtubule nucleation assay; type: biochemical; details: for Inhibition of microtubule nucleation/assembly from purified centrosomes (in words): in vitro
T2 construct: containing 125 μg bovine brain tubulin (Cytoskeleton, Denver, Colo.); purchased Cytoskeleton, Denver, Colo; host or cells: bovine brain (tissue-purified)
Description: In vitro Centrosome-Dependant Microtubule Nucleation Assay
Isolation of centrosomes and microtubule nucleation tests were performed as described (Hung et al., 2000). To investigate the effect of different GST-truncated CPAP fusion proteins on microtubule nucleation, purified centrosomes (4 μl per reaction) were pre-incubated with the various truncated GST-CPAP fusion proteins or FPLC purified synthetic peptides for 10 min at 4° C. The reaction mixtures were then incubated in 65 μl RG1 buffer (80 mM PIPES, pH 6.8, 1 mM EGTA, 1 mM MgCl2, and 1 mM GTP) containing 125 μg bovine brain tubulin (Cytoskeleton, Denver, Colo.) for 4 min at 37° C.
Microtubules present in the reaction mixtures were fixed in 200 μl 1% glutaraldehyde in RG1 buffer, sedimented onto acid-treated coverslips, and subjected to immunofluoresence analysis using anti-α-tubulin monoclonal antibodies N356 (Amersham, Piscataway, N.J.) or FITC-conjugated anti-α-tubulin monoclonal antibodies (DM1A-FITC; Sigma, Saint Louis, Mo.). Truncated GST-CPAP proteins were detected using an anti-GST polyclonal antibody (Molecular Probes, Cincinnati, Ohio). The extent of microtubule assembly in each reaction was determined microscopically by comparing the extent of microtubule formation on each coverslip. Decreased microtubule formation in reactions comprising polypeptides derived from CPAP indicated the ability of such polypeptides to inhibit centrosome-dependent microtubule assembly.

T2 sequence (P81947 whole entry): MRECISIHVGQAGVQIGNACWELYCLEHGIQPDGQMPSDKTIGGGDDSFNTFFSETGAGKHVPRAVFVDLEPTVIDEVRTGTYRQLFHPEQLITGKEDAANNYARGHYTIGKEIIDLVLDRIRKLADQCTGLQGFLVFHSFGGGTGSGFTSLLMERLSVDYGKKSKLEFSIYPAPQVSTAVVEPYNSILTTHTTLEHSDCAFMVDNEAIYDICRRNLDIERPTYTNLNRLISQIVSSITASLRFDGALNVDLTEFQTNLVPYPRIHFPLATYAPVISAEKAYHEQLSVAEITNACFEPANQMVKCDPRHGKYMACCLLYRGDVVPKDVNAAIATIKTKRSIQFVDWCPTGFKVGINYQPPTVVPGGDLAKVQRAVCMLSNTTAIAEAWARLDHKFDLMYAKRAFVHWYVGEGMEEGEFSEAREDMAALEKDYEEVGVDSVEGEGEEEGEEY
T2 sequence (Q6B856 whole entry): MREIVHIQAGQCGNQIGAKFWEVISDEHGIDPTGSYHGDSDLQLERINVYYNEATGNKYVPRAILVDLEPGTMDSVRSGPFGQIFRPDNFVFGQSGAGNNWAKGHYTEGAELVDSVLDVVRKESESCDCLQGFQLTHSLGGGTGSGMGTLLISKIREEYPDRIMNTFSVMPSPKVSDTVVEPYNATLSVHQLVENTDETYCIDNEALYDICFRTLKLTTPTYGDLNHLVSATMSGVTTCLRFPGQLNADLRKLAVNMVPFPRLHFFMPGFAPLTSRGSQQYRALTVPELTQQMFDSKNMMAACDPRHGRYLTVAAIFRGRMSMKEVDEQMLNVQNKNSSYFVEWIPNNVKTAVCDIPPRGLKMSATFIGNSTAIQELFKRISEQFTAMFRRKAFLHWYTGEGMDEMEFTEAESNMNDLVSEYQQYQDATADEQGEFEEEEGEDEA
T1 sequence (P81947 whole entry): as the sequence (P81947 whole entry) above
T1 sequence (Q6B856 whole entry): as the sequence (Q6B856 whole entry) above

Molecule: COC(=O)Nc1nc2ccc(C(=O)c3cccs3)cc2[nH]1 [nocodazole, Nocodazole, reference compound]
- Disassembly of polymerized microtubules in the absence of centrosomes (in words) [1]: disassembled

Molecule: GST-PN2-1: GST fusion polypeptide with sub-region PN2-1 of PN2 (CPAP residues 132-190 per b157) (EFKEGAYKDPLFKKLEQLKEVQQKKQEQLKRQQLEQLQRLMEEQEKLLTMVSGQCTLPG; also: GST fusion, terminus not given here)
- Disassembly of polymerized microtubules in the absence of centrosomes (in words) [1]: no such effect

B1: GFP-PN2-2: GFP-tagged CPAP residues 191-310 (protein, UniProt Q9HC77 191-310, looked up, fragment)
chain: LSLLPDDQSQKHRSPGNTTTGERATCCFPSYVYPDPTQEETYPSNILSHEQSNFCRTAHGDFVLTSKRASPNLFSEAQYQEAPVEKNNLKEENRNHPTGESILCWEKVTEQIQEANDKNL
modifications: GFP tag
- Inhibition of microtubule reassembly in cold-treated mitotic cells (in words) (HeLa cells): no significant inhibition

B2: GST-PN2-3: GST fusion polypeptide corresponding to residues 311-422 of CPAP (protein)
chain: QKHDDSSEVANIEERPIKAAIGERKQTFEDYLEEQIQLEEQELKQKQLKEAEGPLPIKAKPKQPFLKRGEGLARFTNAKSKFQKGKESKLVTNQSTSEDQPLFKMDRQQLQR
modifications: left off: a dimerising Fc or GST
notes: GST fusion polypeptide corresponding to residues 311-422 of CPAP
- Disassembly of polymerized microtubules in the absence of centrosomes (in words) [1]: disassembled
- Inhibition of microtubule nucleation/assembly from purified centrosomes (in words) [2]: possessed the ability to inhibit microtubule assembly; also recorded: greatest level of inhibition

B3: GST-CM: GST fusion polypeptide corresponding to amino acid residues 132-607 of CPAP (protein)
chain: EFKEGAYKDPLFKKLEQLKEVQQKKQEQLKRQQLEQLQRLMEEQEKLLTMVSGQCTLPGLSLLPDDQSQKHRSPGNTTTGERATCCFPSYVYPDPTQEETYPSNILSHEQSNFCRTAHGDFVLTSKRASPNLFSEAQYQEAPVEKNNLKEENRNHPTGESILCWEKVTEQIQEANDKNLQKHDDSSEVANIEERPIKAAIGERKQTFEDYLEEQIQLEEQELKQKQLKEAEGPLPIKAKPKQPFLKRGEGLARFTNAKSKFQKGKESKLVTNQSTSEDQPLFKMDRQQLQRKTALKNKELCADNPILKKDSKARTKSGSVTLSQKPKMLKCSNRKSLSPSGLKIQTGKKCDGQFRDQIKFENKVTSNNKENVTECPKPCDTGCTGWNKTQGKDRLPLSTGPASRLAAKSPIRETMKESESSLDVSLQKKLETWEREKEKENLELDEFLFLEQAADEISFSSNSSFVLKILERDQQI
modifications: left off: a dimerising Fc or GST
notes: GST fusion polypeptide corresponding to amino acid residues 132-607 of CPAP
- Disassembly of polymerized microtubules in the absence of centrosomes (in words) [1]: disassembled
- Inhibition of microtubule nucleation/assembly from purified centrosomes (in words) [2]: inhibited

B4: GFP-CM: GFP-tagged CPAP residues 132-607, expressed from a transfected vector (protein, UniProt Q9HC77 132-607, looked up, fragment)
chain: EFKEGAYKDPLFKKLEQLKEVQQKKQEQLKRQQLEQLQRLMEEQEKLLTMVSGQCTLPGLSLLPDDQSQKHRSPGNTTTGERATCCFPSYVYPDPTQEETYPSNILSHEQSNFCRTAHGDFVLTSKRASPNLFSEAQYQEAPVEKNNLKEENRNHPTGESILCWEKVTEQIQEANDKNLQKHDDSSEVANIEERPIKAAIGERKQTFEDYLEEQIQLEEQELKQKQLKEAEGPLPIKAKPKQPFLKRGEGLARFTNAKSKFQKGKESKLVTNQSTSEDQPLFKMDRQQLQRKTALKNKELCADNPILKKDSKARTKSGSVTLSQKPKMLKCSNRKSLSPSGLKIQTGKKCDGQFRDQIKFENKVTSNNKENVTECPKPCDTGCTGWNKTQGKDRLPLSTGPASRLAAKSPIRETMKESESSLDVSLQKKLETWEREKEKENLELDEFLFLEQAADEISFSSNSSFVLKILERDQQI
modifications: GFP tag
notes: GFP-tagged CPAP residues 132-607, expressed from a transfected vector
- Inhibition of microtubule reassembly in cold-treated mitotic cells (in words) (HeLa cells): significantly inhibited microtubule reassembly

B5: GFP-A5N: GFP-tagged CPAP residues 423-607 (protein, UniProt Q9HC77 423-607, looked up, fragment)
chain: KTALKNKELCADNPILKKDSKARTKSGSVTLSQKPKMLKCSNRKSLSPSGLKIQTGKKCDGQFRDQIKFENKVTSNNKENVTECPKPCDTGCTGWNKTQGKDRLPLSTGPASRLAAKSPIRETMKESESSLDVSLQKKLETWEREKEKENLELDEFLFLEQAADEISFSSNSSFVLKILERDQQI
modifications: GFP tag
- Inhibition of microtubule reassembly in cold-treated mitotic cells (in words) (HeLa cells): no significant inhibition

B6: peptide M: synthetic peptide, amino acid residues 320-390 of CPAP (SEQ ID NO:1) (peptide, listed as Homo sapiens)
chain: ANIEERPIKAAIGERKQTFEDYLEEQIQLEEQELKQKQLKEAEGPLPIKAKPKQPFLKRGEGLARFTNAKS
- Disassembly of polymerized microtubules in the absence of centrosomes (in words) [1]: disassembled
- Effect of synthetic peptide on centrosome-dependent microtubule nucleation (in words) ([2]; 20 μM or 40 μM peptide): inhibited centrosome-dependent microtubule nucleation in a dose dependent manner

B7: GFP-A5C: GFP-tagged CPAP residues 1070-1338 (protein, UniProt Q9HC77 1070-1338, looked up, fragment)
chain: KLANTSVRFQNSQISSGTQVEKYKKNYLPMQGNPPRRSKSAPPRDLGNLDKGQAASPREPLEPLNFPDPEYKEEEEDQDIQGEISHPDGKVEKVYKNGCRVILFPNGTRKEVSADGKTITVTFFNGDVKQVMPDQRVIYYYAAAQTTHTTYPEGLEVLHFSSGQIEKHYPDGRKEITFPDQTVKNLFPDGQEESIFPDGTIVRVQRDGNKLIEFNNGQRELHTAQFKRREYPDGTVKTVYANGHQETKYRSGRIRVKDKEGNVLMDTEL
modifications: GFP tag
- Inhibition of microtubule reassembly in cold-treated mitotic cells (in words) (HeLa cells): no significant inhibition

B8: GFP-PN1: GFP-tagged CPAP residues 1-132 (protein, UniProt Q9HC77 1-132, looked up, fragment)
chain: MFLMPTSSELNSGQNFLTQWMTNPSRAGVILNRGFPILEADKEKRAAVDISTSFPIKGTHFSDSFSFINEEDSLLEEQKLESNNPYKPQSDKSETHTAFPCIKKGPQVAACHSAPGHQEENKNDFIPDLASE
modifications: GFP tag
- Inhibition of microtubule reassembly in cold-treated mitotic cells (in words) (HeLa cells): no significant inhibition

B9: GFP-A5M2: GFP-tagged CPAP residues 607-1070 (protein, UniProt Q9HC77 607-1070, looked up, fragment)
chain: ICKGHRMSSTPVKAVPQKTNPADPISHCNRSEDLDHTAREKESECEVAPKQLHSLSSADELREQPCKIRKAVQKSTSENQTEWNARDDEGVPNSDSSTDSEEQLDVTIKPSTEDRERGISSREDSPQVCDDKGPFKDTRTQEDKRRDVDLDLSDKDYSSDESIMESIKHKVSEPSRSSSLSLSKMDFDDERTWTDLEENLCNHDVVLGNESTYGTPQTCYPNNEIGILDKTIKRKIAPVKRGEDLSKSRRSRSPPTSELMMKFFPSLKPKPKSDSHLGNELKLNISQDQPPGDNARSQVLREKIIELETEIEKFKAENASLAKLRIERESALEKLRKEIADFEQQKAKELARIEEFKKEEMRKLQKERKVFEKYTTAARTFPDKKEREEIQTLKQQIADLREDLKRKETKWSSTHSRLRSQIQMLVRENTDLREEIKVMERFRLDAWKRAEAIESSLEVEKKDK
modifications: GFP tag
- Inhibition of microtubule reassembly in cold-treated mitotic cells (in words) (HeLa cells): no significant inhibition
